Measurements taken from article doi:10.1101/407197.
Like-named read-outs stand apart in the source and are kept apart here.

B1: Ssty RNA oligonucleotide (putative piRNA) (ssRNA)
RNA: CCUCAUGAAGAAGAGGAGGAGGA
B2: piR1 (ssRNA)
RNA: UGACAUGAACACAGGUGCUCAGAUAGCUUU
B3: Sly RNA oligonucleotide (putative piRNA) (ssRNA)
RNA: CAGUUAAAGAAAUGCAUGAGAA

Legend:
[1] = biological target: T1, MIWI (mouse, UniProt Q9JMB7 1-862); experiment: EMSA
[2] = biological target: T1, MIWI; experiment: EMSA; remark: listed apart in the source

T1 sequence (Q9JMB7 whole entry): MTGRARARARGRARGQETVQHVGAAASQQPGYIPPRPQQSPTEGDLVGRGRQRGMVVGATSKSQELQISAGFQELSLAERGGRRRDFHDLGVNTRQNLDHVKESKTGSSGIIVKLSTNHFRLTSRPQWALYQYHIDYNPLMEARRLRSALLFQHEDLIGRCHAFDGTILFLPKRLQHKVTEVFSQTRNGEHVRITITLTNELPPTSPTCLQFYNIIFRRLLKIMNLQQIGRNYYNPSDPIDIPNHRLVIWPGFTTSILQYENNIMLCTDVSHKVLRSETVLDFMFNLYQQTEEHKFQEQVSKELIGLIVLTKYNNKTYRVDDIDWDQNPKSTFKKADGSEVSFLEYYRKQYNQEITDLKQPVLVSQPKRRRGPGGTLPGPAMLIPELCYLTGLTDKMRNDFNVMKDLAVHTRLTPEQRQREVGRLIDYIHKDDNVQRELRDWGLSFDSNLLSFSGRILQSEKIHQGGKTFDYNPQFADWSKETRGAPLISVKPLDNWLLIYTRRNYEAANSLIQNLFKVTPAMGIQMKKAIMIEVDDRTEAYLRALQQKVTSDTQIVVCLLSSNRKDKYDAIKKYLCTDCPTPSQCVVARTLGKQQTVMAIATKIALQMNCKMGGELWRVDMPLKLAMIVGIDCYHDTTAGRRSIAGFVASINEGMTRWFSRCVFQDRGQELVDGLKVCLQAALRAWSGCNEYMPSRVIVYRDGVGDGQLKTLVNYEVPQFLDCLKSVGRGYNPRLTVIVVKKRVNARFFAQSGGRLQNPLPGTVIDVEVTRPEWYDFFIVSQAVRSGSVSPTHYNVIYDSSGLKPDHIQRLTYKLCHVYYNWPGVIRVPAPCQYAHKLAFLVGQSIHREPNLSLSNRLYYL

Binder	binding result [1]	binding result [2]
B1	binds	
B2		binds
B3	binds	
